Targets include MMP8 (human, UniProt P22894 101-467, limits assumed); MMP3 (human, UniProt P08254 100-477, limits assumed); MMP13 (human, UniProt P45452 104-471, limits assumed); Elastase; MMP9 (human, UniProt P14780 107-707, limits assumed).
Experiment in all cases: cell-based or functional assay
In a further assay the target is T1, Cathepsin G (UniProt P08311 21-244).
T1 sequence (looked up): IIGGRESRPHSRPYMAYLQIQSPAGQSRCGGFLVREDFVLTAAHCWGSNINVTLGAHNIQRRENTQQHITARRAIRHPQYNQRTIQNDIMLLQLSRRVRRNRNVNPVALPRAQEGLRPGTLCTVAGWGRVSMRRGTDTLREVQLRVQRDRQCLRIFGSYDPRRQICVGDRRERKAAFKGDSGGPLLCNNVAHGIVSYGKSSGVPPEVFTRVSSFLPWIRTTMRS

The next assay addresses T2, MMP7 (UniProt P09237 95-267, limits assumed).
T2 sequence (looked up): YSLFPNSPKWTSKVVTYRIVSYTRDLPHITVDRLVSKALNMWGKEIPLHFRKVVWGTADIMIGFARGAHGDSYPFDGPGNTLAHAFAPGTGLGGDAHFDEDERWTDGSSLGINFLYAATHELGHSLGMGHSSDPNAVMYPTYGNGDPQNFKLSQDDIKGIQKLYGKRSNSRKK

The next assay addresses T3, MMP1 (human, UniProt P03956 100-469, limits assumed).
T3 sequence (looked up): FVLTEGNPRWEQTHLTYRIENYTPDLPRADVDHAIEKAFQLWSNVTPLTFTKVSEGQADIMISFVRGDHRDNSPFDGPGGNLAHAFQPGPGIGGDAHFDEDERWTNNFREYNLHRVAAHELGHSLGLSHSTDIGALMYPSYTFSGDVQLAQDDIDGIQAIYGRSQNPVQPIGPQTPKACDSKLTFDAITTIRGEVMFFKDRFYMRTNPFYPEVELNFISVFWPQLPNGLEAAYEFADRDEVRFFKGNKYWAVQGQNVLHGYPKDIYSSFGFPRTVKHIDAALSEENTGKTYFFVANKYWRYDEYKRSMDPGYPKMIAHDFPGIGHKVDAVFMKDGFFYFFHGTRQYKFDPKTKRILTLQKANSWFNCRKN

A further assay concerns the target T4, MMP2 (human, UniProt P08253 110-660, limits assumed).
T4 sequence (looked up): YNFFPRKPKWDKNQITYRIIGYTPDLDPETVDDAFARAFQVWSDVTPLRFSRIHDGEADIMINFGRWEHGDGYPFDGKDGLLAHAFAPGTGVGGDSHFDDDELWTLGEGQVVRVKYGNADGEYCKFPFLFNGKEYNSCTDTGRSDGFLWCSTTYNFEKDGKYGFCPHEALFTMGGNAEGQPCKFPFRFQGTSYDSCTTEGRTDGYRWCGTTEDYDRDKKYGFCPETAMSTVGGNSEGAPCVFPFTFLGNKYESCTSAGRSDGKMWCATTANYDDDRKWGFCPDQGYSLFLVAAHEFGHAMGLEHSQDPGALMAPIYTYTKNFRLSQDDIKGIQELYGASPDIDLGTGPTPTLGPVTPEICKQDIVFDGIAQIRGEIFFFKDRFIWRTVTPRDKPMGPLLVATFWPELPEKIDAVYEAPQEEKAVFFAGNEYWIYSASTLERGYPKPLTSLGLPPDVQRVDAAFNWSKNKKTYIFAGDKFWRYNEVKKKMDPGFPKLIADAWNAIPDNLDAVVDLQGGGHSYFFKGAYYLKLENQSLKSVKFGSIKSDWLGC

The target of another assay is T5, ADAMTS4 (human, UniProt O75173 213-685, limits assumed).
T5 sequence (looked up): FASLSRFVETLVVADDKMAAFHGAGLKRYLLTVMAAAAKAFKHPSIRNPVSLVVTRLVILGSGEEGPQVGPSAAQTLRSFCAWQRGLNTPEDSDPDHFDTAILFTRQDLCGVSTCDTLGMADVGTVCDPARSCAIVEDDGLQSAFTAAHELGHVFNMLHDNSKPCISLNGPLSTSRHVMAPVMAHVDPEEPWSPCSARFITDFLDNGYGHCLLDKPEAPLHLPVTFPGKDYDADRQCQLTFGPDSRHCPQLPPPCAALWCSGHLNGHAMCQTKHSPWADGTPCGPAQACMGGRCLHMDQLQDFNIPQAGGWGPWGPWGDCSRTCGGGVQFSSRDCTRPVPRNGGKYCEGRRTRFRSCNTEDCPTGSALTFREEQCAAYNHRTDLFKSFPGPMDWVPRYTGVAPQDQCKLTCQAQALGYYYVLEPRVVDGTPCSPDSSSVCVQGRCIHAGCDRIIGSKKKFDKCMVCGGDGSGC

In a further assay the target is T6, ADAMTS5 (human, UniProt Q9UNA0 262-622, limits assumed).
T6 sequence (looked up): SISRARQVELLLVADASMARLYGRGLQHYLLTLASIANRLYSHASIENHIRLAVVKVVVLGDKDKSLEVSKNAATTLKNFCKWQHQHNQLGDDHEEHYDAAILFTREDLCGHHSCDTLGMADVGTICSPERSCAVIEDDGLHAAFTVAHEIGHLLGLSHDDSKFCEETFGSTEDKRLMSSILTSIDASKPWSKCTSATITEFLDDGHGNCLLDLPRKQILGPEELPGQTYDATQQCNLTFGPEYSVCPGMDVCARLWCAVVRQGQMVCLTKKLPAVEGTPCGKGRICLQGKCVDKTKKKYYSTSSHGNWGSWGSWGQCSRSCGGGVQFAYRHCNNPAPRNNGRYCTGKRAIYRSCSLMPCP

Sequence of MMP8 (P22894 101-467 limits assumed): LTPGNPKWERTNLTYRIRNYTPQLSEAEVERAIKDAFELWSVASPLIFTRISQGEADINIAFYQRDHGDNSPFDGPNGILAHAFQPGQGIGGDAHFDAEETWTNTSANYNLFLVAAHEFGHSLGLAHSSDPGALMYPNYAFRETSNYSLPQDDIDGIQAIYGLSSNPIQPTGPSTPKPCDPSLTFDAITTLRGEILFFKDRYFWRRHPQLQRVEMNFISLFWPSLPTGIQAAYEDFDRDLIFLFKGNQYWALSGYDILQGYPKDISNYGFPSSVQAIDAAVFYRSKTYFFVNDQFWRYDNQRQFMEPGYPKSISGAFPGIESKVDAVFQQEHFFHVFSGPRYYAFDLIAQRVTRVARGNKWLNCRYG
Sequence of MMP9 (P14780 107-707 limits assumed): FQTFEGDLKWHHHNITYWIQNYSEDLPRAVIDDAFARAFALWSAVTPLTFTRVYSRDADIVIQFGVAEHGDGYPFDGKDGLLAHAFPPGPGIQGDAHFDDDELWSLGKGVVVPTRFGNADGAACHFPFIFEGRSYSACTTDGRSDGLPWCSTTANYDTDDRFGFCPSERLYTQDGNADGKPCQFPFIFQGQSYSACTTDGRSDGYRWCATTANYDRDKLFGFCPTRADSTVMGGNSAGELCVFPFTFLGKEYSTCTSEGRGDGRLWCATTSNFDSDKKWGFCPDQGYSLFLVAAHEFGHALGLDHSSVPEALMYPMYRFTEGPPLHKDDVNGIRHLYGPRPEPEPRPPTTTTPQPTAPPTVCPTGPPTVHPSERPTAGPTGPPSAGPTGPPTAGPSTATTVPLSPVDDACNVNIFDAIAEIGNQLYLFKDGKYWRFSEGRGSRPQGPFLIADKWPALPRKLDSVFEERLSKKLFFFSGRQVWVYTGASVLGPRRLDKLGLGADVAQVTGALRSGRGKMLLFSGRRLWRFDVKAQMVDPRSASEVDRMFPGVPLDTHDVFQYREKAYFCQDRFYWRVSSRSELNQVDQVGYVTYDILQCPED
Sequence of MMP3 (P08254 100-477 limits assumed): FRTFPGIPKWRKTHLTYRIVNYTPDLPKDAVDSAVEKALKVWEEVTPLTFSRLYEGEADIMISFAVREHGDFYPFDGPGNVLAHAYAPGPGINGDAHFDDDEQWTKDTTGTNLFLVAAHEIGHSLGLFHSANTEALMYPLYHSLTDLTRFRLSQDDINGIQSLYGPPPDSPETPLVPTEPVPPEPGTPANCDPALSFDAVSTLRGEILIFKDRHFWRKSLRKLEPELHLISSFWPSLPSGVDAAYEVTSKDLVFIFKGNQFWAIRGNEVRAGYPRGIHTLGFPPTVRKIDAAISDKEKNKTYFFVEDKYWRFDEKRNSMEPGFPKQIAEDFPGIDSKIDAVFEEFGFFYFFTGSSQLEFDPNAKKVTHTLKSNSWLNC

B1: Variant A2M, bait region SEQ ID NO 12 (other)
chain: SVSGKPQYMVLVPSLLHTETTEKGCVLLSYLNETVTVSASLESVRGNRSLFTDLEAENDVLHCVAFAVPKSSSNEEVMFLTVQVKGPTQEFKKRTTVMVKNEDSLVFVQTDKSIYKPGQTVKFRVVSMDENFHPLNELIPLVYIQDPKGNRIAQWQSFQLEGGLKQFSFPLSSEPFQGSYKVVVQKKSGGRTEHPFTVEEFVLPKFEVQVTVPKIITILEEEMNVSVCGLYTYGKPVPGHVTVSICRKYSDASDCHGEDSQAFCEKFSGQLNSHGCFYQQVKTKVFQLKRKEYEMKLHTEAQIQEEGTVVELTGRQSSEITRTITKLSFVKVDSHFRQGIPFFGQVRLVDGKGVPIPNKVIFIRGNEANYYSNATTDEHGLVQFSINTTNVMGTSLTVRVNYKDRSPCYGYQWVSEEHEEAHHTAYLVFSPSKSFVHLEPMSHELPCGHTQTVQAHYILNGGTLLGLKKLSFYYLIMAKGGIVRTGTHGLLVKQEDMKGHFSISIPVKSDIAPVARLLIYAVLPTGDVIGDSAKYDVENCLANKVDLSFSPSQSLPASHAHLRVTAAPQSVCALRAVDQSVLLMKPDAELSASSVYNLLPEKDLTGFPGPLNDQDDEDCINRHNVYINGITYTPVSSTNEKDMYSFLEDMGLKAFTNSKIRKPKMCPQLEHGPEGEGEGEIPENFEFRGVSEDLVVQISELEGRGSVEEPHTKLRKYFPETWIWDLVVVNSAGVAEVGVTVPDTITEWKAGAFCLSEDAGLGISSTASLRAFQPFFVELTMPYSVIRGEAFTLKATVLNYLPKCIRVSVQLEASPAFLAVPVEKEQAPHCICANGRQTVSWAVTPKSLGNVNFTVSAEALESQELCGTEVPSVPEHGRKDTVIKPLLVEPEGLEKETTFNSLLCPSGGEVSEELSLKLPPNVVEESARASVSVLGDILGSAMQNTQNLLQMPYGCGEQNMVLFAPNIYVLDYLNETQQLTPEIKSKAIGYLNTGYQRQLNYKHYDGSYSTFGERYGRNQGNTWLTAFVLKTFAQARAYIFIDEAHITQALIWLSQRQKDNGCFRSSGSLLNNAIKGGVEDEVTLSAYITIALLEIPLTVTHPVVRNALFCLESAWKTAQEGDHGSHVYTKALLAYAFALAGNQDKRKEVLKSLNEEAVKKDNSVHWERPQKPKAPVGHFYEPQAPSAEVEMTSYVLLAYLTAQPAPTSEDLTSATNIVKWITKQQNAQGGFSSTQDTVVALHALSKYGAATFTRTGKAAQVTIQSSGTFSSKFQVDNNNRLLLQQVSLPELPGEYSMKVTGEGCVYLQTSLKYNILPEKEEFPFALGVQTLPQTCDEPKAHTSFQISLSVSYTGSRSASNMAIVDVKMVSGFIPLKPTVKMLERSNHVSRTEVSSNHVLIYLDKVSNQTLSLFFTVLQDVPVRDLKPAIVKVYDYYETDEFAIAEYNAPCSKDLGNADYKDDDDKGASHHHHHH
For B1, the “Protease Inhibition (% of WT)” value with Cathepsin G was 105 % of WT; in the assay with MMP8, 54 % of WT; with MMP3, 182 % of WT; with MMP13 it was 72 % of WT; with MMP7, 160 % of WT; in the assay with Elastase, 117 % of WT. Also, the “Protease Inhibition (% of WT)” value is 0 % of WT in the assay with MMP9; 108 % of WT with MMP1; 16 % of WT with MMP2; 208 % of WT with ADAMTS4; 440 % of WT with ADAMTS5.

B2: Variant A2M, bait region SEQ ID NO 13 (other)
chain: SVSGKPQYMVLVPSLLHTETTEKGCVLLSYLNETVTVSASLESVRGNRSLFTDLEAENDVLHCVAFAVPKSSSNEEVMFLTVQVKGPTQEFKKRTTVMVKNEDSLVFVQTDKSIYKPGQTVKFRVVSMDENFHPLNELIPLVYIQDPKGNRIAQWQSFQLEGGLKQFSFPLSSEPFQGSYKVVVQKKSGGRTEHPFTVEEFVLPKFEVQVTVPKIITILEEEMNVSVCGLYTYGKPVPGHVTVSICRKYSDASDCHGEDSQAFCEKFSGQLNSHGCFYQQVKTKVFQLKRKEYEMKLHTEAQIQEEGTVVELTGRQSSEITRTITKLSFVKVDSHFRQGIPFFGQVRLVDGKGVPIPNKVIFIRGNEANYYSNATTDEHGLVQFSINTTNVMGTSLTVRVNYKDRSPCYGYQWVSEEHEEAHHTAYLVFSPSKSFVHLEPMSHELPCGHTQTVQAHYILNGGTLLGLKKLSFYYLIMAKGGIVRTGTHGLLVKQEDMKGHFSISIPVKSDIAPVARLLIYAVLPTGDVIGDSAKYDVENCLANKVDLSFSPSQSLPASHAHLRVTAAPQSVCALRAVDQSVLLMKPDAELSASSVYNLLPEKDLTGFPGPLNDQDDEDCINRHNVYINGITYTPVSSTNEKDMYSFLEDMGLKAFTNSKIRKPKMCPQLEHGPRYLTAEGEGEGIPENFFGVSEDLVVQISELEGRGSVEEPHTKLRKYFPETWIWDLVVVNSAGVAEVGVTVPDTITEWKAGAFCLSEDAGLGISSTASLRAFQPFFVELTMPYSVIRGEAFTLKATVLNYLPKCIRVSVQLEASPAFLAVPVEKEQAPHCICANGRQTVSWAVTPKSLGNVNFTVSAEALESQELCGTEVPSVPEHGRKDTVIKPLLVEPEGLEKETTFNSLLCPSGGEVSEELSLKLPPNVVEESARASVSVLGDILGSAMQNTQNLLQMPYGCGEQNMVLFAPNIYVLDYLNETQQLTPEIKSKAIGYLNTGYQRQLNYKHYDGSYSTFGERYGRNQGNTWLTAFVLKTFAQARAYIFIDEAHITQALIWLSQRQKDNGCFRSSGSLLNNAIKGGVEDEVTLSAYITIALLEIPLTVTHPVVRNALFCLESAWKTAQEGDHGSHVYTKALLAYAFALAGNQDKRKEVLKSLNEEAVKKDNSVHWERPQKPKAPVGHFYEPQAPSAEVEMTSYVLLAYLTAQPAPTSEDLTSATNIVKWITKQQNAQGGFSSTQDTVVALHALSKYGAATFTRTGKAAQVTIQSSGTFSSKFQVDNNNRLLLQQVSLPELPGEYSMKVTGEGCVYLQTSLKYNILPEKEEFPFALGVQTLPQTCDEPKAHTSFQISLSVSYTGSRSASNMAIVDVKMVSGFIPLKPTVKMLERSNHVSRTEVSSNHVLIYLDKVSNQTLSLFFTVLQDVPVRDLKPAIVKVYDYYETDEFAIAEYNAPCSKDLGNADYKDDDDKGASHHHHHH
For the molecule B2, the “Protease Inhibition (% of WT)” value was 54 % of WT with Cathepsin G; 81 % of WT with MMP8; 189 % of WT with MMP3; 76 % of WT with MMP13; 128 % of WT in the assay with MMP7; 97 % of WT with Elastase. The “Protease Inhibition (% of WT)” value in the assay with MMP9 is 71 % of WT; with MMP1, 91 % of WT; in the assay with MMP2, 65 % of WT; with ADAMTS4, 290 % of WT; in the assay with ADAMTS5, 194 % of WT.

These data come from US20230250154A1 (CYTONICS, published 2023).
